Source: patent publication US6861578B1, “Method for plant protection against insects or nematodes by transformation with a nucleic acid encoding equistatin” (Plant Research International B.V., priority 1997, dated 2005)

What was measured:
thrips females = experiment: Oviposition rate of thrips females in Murai cages; assay type: in vivo, Frankliniella occidentalis
Method: A sample of 142 μM recombinant equistatin purified as described in example 4 was assayed for activity towards thrips. Sample was acidified with HCl to pH 3 to stabilize the equistatin protein. Controls contained acidified water or 2.5 mg/ml BSA dissolved in acidified water. The oviposition rate of thrips females was assayed using so-called Murai cages. Briefly, perspex tubes closed on side with a fine gauze were inoculated with 10 females and bee pollen. Tubes were closed with parafilm and 300 μl fluid was placed on top of the parafilm. A second layer of parafilm enclosed the fluid. Pollen and sample fluid were replaced every day for two days. Eggs deposited in the liquid sample were counted on day 2.

[1] = tested on: endoprotease activity of Colorado potato beetle larval gut extracts; experiment: Narrow spectrum endoprotease activity of Colorado potato beetle gut extract, Z-Arg-Arg-pNA; assay type: biochemical, Leptinotarsa decemlineata
Description: Guts of final instar Colorado potato beetle larvae reared on methyl jasmonate induced plants were isolated and extracted essentially as described (Bolter and Jongsma, J. Insect Physiol. 41: 1071-1078). In these gut extracts the proteases that are sensitive to the protease inhibitors of potato are already complexed. The residual protease activity is composed of potato protease-inhibitor-insensitive proteases which were induced in response to the methyl jasmonate induced potato inhibitors. These proteases are the proteases that render the beetle larvae insensitive to protease inhibitor defense of the potato plant. Wle tested a broad range of different cysteisie protease inhibitors for activity specifically against these induced potato protease inhibitor-insensitive cysteine protesses. Nearly all of these inhibitors were purified at the Jozef Stefan Institute in Slovenia. Testing their potential against Colorado potato beetle was done using both general protein substrates (azocasein, table 2) as well as specific synthetic substrates (L-Arg-pNA, table 3; pGlu-Phe-Leu-pNA, table 4; Z-Phe-Arg-pNA, table 5; Z-Arg-Arg-pNA, table 6). In specific cases inhibitors were tested at two concentrations, eauimolar and in excess to the protease, in order to obtain an indication of the tightness of the complex. […] Importantly, this class of inhibitors was capable of inhibiting nearly all general cysteine protease activity. The equistatin peptide molecule and a functional derivative thereof were not very active against the aminopeptidase-like cysteine protease activity. […] The best combination of inhibitors for full toxicity against the Colorado potato beetle would therefore be a combination of equistatin or p41 invariant chain fragment and stefin-like inhibitors.

trypsin = experiment: Screen of equistatin against serine proteinase trypsin; limited proteolysis; assay type: biochemical; details: screened against cathepsin D and trypsin
Method: Equistatin was isolated from sea anemone A. equina by a procedure that was described previously utilizing its inhibitory activity toward cysteine proteinase, papain (Lenarcic et al. (1997) J. Biol. Chem. 272: 13899). Besides cysteine proteinases, equistatin was screened for the inhibition of two other classes of proteinases, aspartic proteinases (cathepsin D) and serine proteinase (trypsin). […] 500 μg equistatin was incubated with 5 μg of β-trypsin in 0.5 ml of 0.1 M Tris/HCl buffer pH 8.0, for 40 min at 37° C. Reaction was stopped by the addition of trifluoroacetic acid. The 9-trypsin digest of equistatin was separated by high performance liquid chromatography (Milton Roy Co.) using a reverse phase Vydac C18 column equilibrated with 5% acetonicril containing 0.1% (v/v) trifluoroacetic acid. Elution was performed using a linear gradient of 80% (v/v) acetonitrile containing 0.1% (v/v) trifluoroacetic acid. Absorbance was monitored at 215 nm. Two major peaks were obtained on the reverse-phase. HPLC (FIG. 9B). The molecular weights, estimated by the SDS PAGE under non-reducing conditions, were about 7,000 and 14,000 (FIG. 10). Determination of the N-termini of the both fragments allowed them to be located in the sequence of the equistatin molecule shown schematically in FIG. 11. […]

leafminer proteases = experiment: Protease activity of adult leafminer fly extract, FITC-hemoglobin; assay type: biochemical, Liriomyza trifolii; details: leafminer pH 3.5; equistatin purified from sea anemone
Method: Adult western flower thrips (Frankliniella occidentalis) and leafmirer flies (Liriomyza trifolii) adult were harvested from a culture maintained on chrysanthemum plants and complete thrips and flies were homogenized in extraction on buffer (200 mM β-alanine-HCl, pH 3.5) in a volume of 5 times the weight of the insects. The buffer pH was at the previously determined pH optimum of protease activity towards hemoglobin. Final instar Colorado potato beetle larvae maintained on potato plants as described in example 5 were checked for gut aspartic protease activity by preparing a total gut extract in pH 3 buffer which is optimal for Colorado potato beetle aspartic proteases (200 mM glycine, pH 3). Guts were homogenized in 100 μl buffer per gut. Third instar western corn rootworm larvae maintained on corn roots were used to remove the guts. Ten guts were homogenized in 100 μl water and spinned twice to remove insoluble material. Two types of buffers were used in the enzymatic assay. One with a pH presumably favoring cysteine proteases (50 mM MES, pH 6.5; 0.6 mg/ml L-cysteine) and one for detecting aspartic proteases (200 mM glycine, pH 3). Supernatants were stored at −20° C.
2 μl gut extract was combined with 2 μl inhibitor (2 mM pepstatin in methanol, 4 mM E64 in water, 2 mg/ml recombinant equistatin in water. The concentration of the other proteinaceous inhibitors was not known exactly). Appropriate buffers were added to a final volume of 100 μl. After 15′ preincubation 20 μl substrate (5 mg/ml FITC-hemoglobin) was added and incubated for 30-45 min at 37 C.
Reaction was stopped by the addition of 100 μl 10% TCA. Tubes were centrifuged and 100 μl supernatant mixed with 100 μl 10 N NaOH was measured on a fluorimeter for the extent of hemoglobin hydrolysis. Measurements were done in duplicate on one (thrips, leafminer and western corn rootworm), or three (Colorado potato beetle) different gut extracts and varied by a maximum of +/−5%.

B1: equistatin: cysteine/aspartic protease inhibitor from sea anemone Actinia equina with three type I repeated thyroglobulin domains; purified or recombinant from E. coli (protein)
chain: SLTKCQQLQASANSGLIGTYVPQCKETGEFEEKQCWGSTGYCWCVDEDGKEILGTKIRGSPDCSRRKAALTLCQMMQAIIVNVPGWCGPPSCKADGSFDEVQCCASNGECYCVDKKGKELEGTRQQGRPTCERHLSECEEARIKAHSNSLRVEMFVPECLEDGSYNPVQCWPSTGYCWCVDEGGVKVPGSDVRFKRPTC
modifications: left off: large carriers; small tags and cut ends
notes: purified or recombinant from E. coli
Oviposition rate, eggs per female per day (thrips females; 142 μM recombinant equistatin, pH 3, eggs counted on day 2): 0.3 eggs per female per day
Oviposition rate, relative percentage (thrips females; relative to BSA diet = 100%): 17%
% of residual activity, equimolar ([1]; equimolar): 20%
% of residual activity, excess inhibitor ([1]; excess inhibitor): −5%
inhibitory effect on trypsin (screen) (trypsin): observed only when it was reacting with cathepsin D
residual protease activity (leafminer proteases): 24%
